Values belong to the molecule of their own block, whether it stands above or below them.
Assays:
[1] = molecular target: Phosphomannose isomerase from Thermococcus kodakarensis, expressed from pET-16b (Thermococcus kodakarensis); test: SEC; AKTA FPLC, XK50-60 column with 1 L Superdex 75 Prep-Grade resin, calibrated with the GE Healthcare Low Molecular Weight kit; elution at double the expected MW; self-association (dimer)
[2] = molecular target: the molecule itself; test: as above

- stoichiometry N [1]: 2
Molecule: Phosphomannose isomerase from Thermococcus kodakarensis, expressed from pET-16b (enzyme)

B1: Phosphomannose isomerase from Thermococcus barophilus, expressed from pET-16b (enzyme)
chain: MKAEIKEFIDRGTYRKAPLFEGELPEGSYAQIVEIKPKQTVPKHYHEKQYELFYIISGQAKLGIEEREYDAKPGDIFLVKPKTVHWVVNKKEEPFRLFVIKLNYFGDDSVWLE
notes: Phosphomannose isomerase (PMI) of Thermococcus barophilus, gene TERMP_00744, synthetic codon-optimized gene; Construct for neutron scattering; removal of the tag is not mentioned; also called Tba PMI; PMI
- stoichiometry N [2]: 2
